Data as given in patent publication US20260209362A1 (VIB VZW, published 2026).

T1: human IL-12Rβ2 (human, UniProt Q99665 24-862)
T1 construct: Expressed on HEK293T cells transiently transfected with a pcDNA3 plasmid (Genscript clone OHu21785); also called hIL-12RB2; IL-12 receptor β2 subunit
T1 sequence: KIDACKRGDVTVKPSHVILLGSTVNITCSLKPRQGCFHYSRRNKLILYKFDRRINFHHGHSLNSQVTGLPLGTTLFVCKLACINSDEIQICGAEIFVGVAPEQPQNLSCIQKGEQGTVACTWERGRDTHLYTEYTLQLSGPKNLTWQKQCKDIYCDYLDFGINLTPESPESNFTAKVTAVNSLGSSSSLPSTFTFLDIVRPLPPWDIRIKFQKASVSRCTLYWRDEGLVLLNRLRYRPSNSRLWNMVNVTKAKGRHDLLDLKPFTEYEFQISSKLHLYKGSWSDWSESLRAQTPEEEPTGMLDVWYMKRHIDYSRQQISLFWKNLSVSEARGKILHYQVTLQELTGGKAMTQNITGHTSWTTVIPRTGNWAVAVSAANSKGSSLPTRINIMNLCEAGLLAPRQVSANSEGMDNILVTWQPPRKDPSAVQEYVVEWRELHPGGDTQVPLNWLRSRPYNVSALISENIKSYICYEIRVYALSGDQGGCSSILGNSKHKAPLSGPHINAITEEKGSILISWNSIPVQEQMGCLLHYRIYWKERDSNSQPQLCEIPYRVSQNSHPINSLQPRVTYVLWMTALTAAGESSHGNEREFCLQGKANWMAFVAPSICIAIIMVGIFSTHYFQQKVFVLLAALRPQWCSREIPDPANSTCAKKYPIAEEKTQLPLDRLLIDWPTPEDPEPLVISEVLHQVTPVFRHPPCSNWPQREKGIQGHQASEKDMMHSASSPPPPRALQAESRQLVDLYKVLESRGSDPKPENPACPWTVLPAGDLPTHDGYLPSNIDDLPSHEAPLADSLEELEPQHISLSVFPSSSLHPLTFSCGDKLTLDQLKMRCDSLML


Target: T1, human IL-12Rβ2
Experiment: flow cytometry, P.E. on transfected HEK293T cells

Row | % cells bound [%] | dMFI | Binder
1 | 34.8 | 620 | anti-IL-12Rβ2 VHH clone 3CRH25 (VHH, not shown: small tags and cut ends, periplasmic extract) VHH: QVQLQESGGGLVQAGDSLRLSCTASGHTFSRYTTIGWFRQAPGKDREFVAAIRWSGDITDYADAVKGRFTISRDNVKNTVYLQMNSLNPEDTAVYYCARGYSEYGVLSRNRGLYAYWGQGTQVTVSS
2 | 31 | 645 | anti-IL-12Rβ2 VHH clone 3CRH64 (VHH, not shown: small tags and cut ends, periplasmic extract) VHH: QVQLQESGGGLVQAGGSLRLSCTASGHTFSRYTTIGWFRQAPGKDREFVAAIRWSGDITDYADAVKGRFTISRDNVKNTVYLQTNSLNPEDTAVYYCARGYSEYGVLSRNRGLYAYWGQGTQVTVSS
3 | 37.7 | 867 | anti-IL-12Rβ2 VHH clone 3CRHS77 (VHH, not shown: small tags and cut ends, periplasmic extract) VHH: QVQLQESGGGLVQAGGSLRLSCTASGHTFSSYTTIGWFRQAPGKEREFVAAIGWSGDITDYADAVKGRFTISRHNVENTVYLQMNSLNPEDTAVYYCARGYSEYGVLSRNRGLYAYWGQGTQVTVSS
4 | 39 | 918 | anti-IL-12Rβ2 VHH clone 3CAHS39 (VHH, not shown: small tags and cut ends, periplasmic extract) VHH: QVQLQESGGGLVQAGGSLRLSCAASGRTINAYIMGWFRQAPGKEREFVAAVSGSGGSTYYADSVKGRFTISRDNAKNTVNLQMDNLRSEDTDVYYCAATYESVYLQNPGQYDYWGQGTQVTVSS
5 | 47.4 | 1270 | anti-IL-12Rβ2 VHH clone 3CAHS150 (VHH, not shown: small tags and cut ends, periplasmic extract) VHH: QVQLQESGGGSVQAGGSLRLSCAASGRTINAYVMGWFRQAPGKEREFVAAISGSGGSTYYADSVKGRFTISRDNAKNTVNLQMDNLRSEDTDVYYCAATYESVYLQNPGQYDYWGQGTQVTVSS
6 | 49.3 | 1460 | anti-IL-12Rβ2 VHH clone 3CAHS53 (VHH, not shown: small tags and cut ends, periplasmic extract) VHH: QVQLQESGGGLVEPGGSLRLSCAASGRTINAYIMGWFRQAPGKEREFVAAVSGSGGSTYYADSVKGRFTISRDSAKNTVNLQMDNLRSEDTDVYYCAATYESVYLQNPGQYDYWGQGTQVTVSS
7 | 47.6 | 1350 | anti-IL-12Rβ2 VHH clone 3CAHS43 (VHH, not shown: small tags and cut ends, periplasmic extract) VHH: QVQLQESGGGSVQAGGSLRLSCAASGRTINAYIMGWFRQAPGKEREFVAAVSGSGGSTYYADSVKGRFTISRDNAKNTVNLQMDNLRSEDTDVYYCAATYESVYLRNPGQYDYWGQGTQVTVSS
8 | 44.3 | 1110 | anti-IL-12Rβ2 VHH clone 3CAHS52 (VHH, not shown: small tags and cut ends, periplasmic extract) VHH: QVQLQESGGGSVQAGGSLRLSCAASGRTINAYIMGWFRQAPGKEREFVAAVSGSGGSTYYADSVKGRFTISRDNAKNTVNLQMDNLRSEDTDVYYCAATYESVYLQNPGQYDYWGQGTQVTVSS
9 | 46.3 | 1200 | anti-IL-12Rβ2 VHH clone 3CAHS124 (VHH, not shown: small tags and cut ends, periplasmic extract) VHH: QVQLQESGGGLVQPGGSLRLSCAASGRTINAYIMGWFRQAPGKEREFVAAVSGSGGSTYYADSVKGRFTISRDNAKNTVNLQMDNLRSEDTDVYYCAATYESVYLQNPGQYDYWGQGTQVTVSS
10 | 42.1 | 980 | anti-IL-12Rβ2 VHH clone 3CRHS99 (VHH, not shown: small tags and cut ends, periplasmic extract) VHH: QVQLQESGGGLVQPGGSLRLSCKASGFTFSTYAMSWVRQAPGKGLEWVSAINSGGLSTDYADSVEGRFTISRDDAKNMLFLQMNSLKAEDTARYYCAKYEDCSDYMCHRDRAGYWGQGTQVTVSS
11 | 43.3 | 1110 | anti-IL-12Rβ2 VHH clone 3CRHS106 (VHH, not shown: small tags and cut ends, periplasmic extract) VHH: QVQLQESGGGLVQPGGSLRLSCKASGFTFSTYAMSWVRQAPGKGLEWVSAVNSGGLSTDYADSVEGRFTISRDDAKNMLFLQMNSLKPEDTARYYCAKYEDCSDYMCHRDRAGYWGQGTQVTVSS
12 | 1.02 | 210 | anti-IL-12Rβ2 VHH clone 3CRHS142 (VHH, not shown: small tags and cut ends, periplasmic extract) VHH: QVQLQESGGGLVQAGGSLRLSCVSSQTLVGIEAMGWYRQAPGKQRELVALITLNGGTFYADSVKGRFTISRDVAEHMLYLEMNSLNPEDTAVYFCVAGVESDNEEPTYWGQGTQVTVSS
13 | 3.55 | 254 | anti-IL-12Rβ2 VHH clone 2CRHS4 (VHH, not shown: small tags and cut ends, periplasmic extract) VHH: QVQLQESGGGLVQPGGSLRLSCVSSQTLVGIEAMGWYRQAPGKQRELVALITLNGGTFYADSVKGRFTISRDVAGHMLYLEMNSLNPEDTAVYFCVAGVESDNEEPTYWGQGTQVTVSS
14 | 7.11 | 443 | anti-IL-12Rβ2 VHH clone 3CRHS67 (VHH, not shown: small tags and cut ends, periplasmic extract) VHH: QVQLQESGGGLVQAGGSLTLSCVSSQTLVGIEAMGWYRQAPGKQRELVALITLNGGTFYADSVKGRFTISRDVAEHMLYLEMNSLNPEDTAVYFCVAGVESDNEEPTYWGQGTQVTVSS
15 | 2.11 | 266 | anti-IL-12Rβ2 VHH clone 3CRHS166 (VHH, not shown: small tags and cut ends, periplasmic extract) VHH: QVQLQESGGGLVQSGGSLRLSCVSSQTLVGIEAMGWYRQAPGKQRELVALITLNGGTFYADSVKGRFTISRDVAEHMLYLEMNSLNPEDTAVYFCVAGVESDNEEPTYWGQGTQVTVSS
16 | 1.51 | 222 | anti-IL-12Rβ2 VHH clone 3CRHS156 (VHH, not shown: small tags and cut ends, periplasmic extract) VHH: QVQLQESGGGLVQSGGSLRLSCVSSQTLVGIEAMGWYRQAPGKQRELVALITLNGGTFYADSVKGRFAISRDVAEHMLYLEMNSLNPEDTAVYFCVAGVESDNEEPTYWGQGTQVTVSS
17 | 31.6 | 583 | anti-IL-12Rβ2 VHH clone 2CRH41 (VHH, not shown: small tags and cut ends, periplasmic extract; also called 20365) VHH: QVQLQESGGGLVQPGGSLRLSCTASGFAFSSYWMYWVRQSPEKGFEWVSVVDTDGGITYYADSVKGRFTISRDNAKNTLYLQMNSLKPQDTALYYCARDRTTLEYTRTYYRTGQGTQVTVSS
18 | 43.7 | 1150 | anti-IL-12Rβ2 VHH clone 3CRHS163 (VHH, not shown: small tags and cut ends, periplasmic extract) VHH: QVQLQESGGGLVQPGGSLRLSCTASGFAFSTYWMYWIRQSPEKGFEWVSVVNTGGDITYYADSVKGRFTISRDNAKNTLYLQMNSLKPEDTALYYCARDRTTMSYTRTYYRGGQGTQVTVSS
19 | 46.1 | 1230 | anti-IL-12Rβ2 VHH clone 3CAHS79 (VHH, not shown: small tags and cut ends, periplasmic extract) VHH: QVQLQESGGGLVQPGGSLRLTCVASGFPFSTHAMSWVRQPPGKGREWISAINSGGDSTDYADSVMGRFTISRDNAKNTVYLQMNSLKSEDTAVYYCAKYEDCSDYDCSSRASWGQGTQVTVSS
20 | 47.5 | 1280 | anti-IL-12Rβ2 VHH clone 3CAHS171 (VHH, not shown: small tags and cut ends, periplasmic extract) VHH: QVQLQESGGGLVQPGGSLRLTCVASGFPFSTHAMSWVRQPPGKGREWISAINSGGDSTDYADSVMGRFTISRDNAKNTVYLQMNSLKSEDTAAYYCAKYEDCSDYDCSSRASWGQGTQVTVSS
21 | 46.1 | 1170 | anti-IL-12Rβ2 VHH clone 3CRH59 (VHH, not shown: small tags and cut ends, periplasmic extract) VHH: QVQLQESGGGLVQPGGSLRLSCTASGFAFSSYWMYWVRQTPGKGFEWVSVVNPGGEITYYGDSMEDRFTISRDNAKNTLYLQMNSLKPEDTGLYYCARDRTTIDYTRTYYRGGQGTQVTVSS
22 | 40.9 | 912 | anti-IL-12Rβ2 VHH clone 3CAHS142 (VHH, not shown: small tags and cut ends, periplasmic extract) VHH: QVQLQESGGGLVQAGESLTLSCIASGVIKDYAMGWFRQAPGKEREFVAAISWSGVSIYYADSVKGRFTISRDNAKNTVYLQMNSLEPEDTAVYYCAGTEGAYTVAGGSTFGYDMDYWGKGTQVTVSS
23 | 40 | 742 | anti-IL-12Rβ2 VHH clone 3CAH32 (VHH, not shown: small tags and cut ends, periplasmic extract; also called 20357) VHH: QVQLQESGGGLVQPGGSLRLSCAASGSILRINLMGWYRQVPGKQRELVAEMSTGGSTTYVDSVKGRFTISRDNAKNTVYLQMNSLKPEDTAVYYCNAKAWQLGRLENDDWGQGTQVTVSS
24 | 44.7 | 1090 | anti-IL-12Rβ2 VHH clone 3CAHS102 (VHH, not shown: small tags and cut ends, periplasmic extract) VHH: QVQLQESGGGLVQPGGSLRLSCAASGSILRINLMGWYRQVPGKQRELVAEMSTGGSTTYVDSVEGRFTISRDNAKNTVYLQMNSLKPEDTAVYYCNAKAWQLGRLENDDWGQGTQVTVSS
25 | 38.3 | 809 | anti-IL-12Rβ2 VHH clone 3CAHS170 (VHH, not shown: small tags and cut ends, periplasmic extract) VHH: QVQLQESGGGLVQAGGSLRLSCVASGRTFSSYAMGWFRQGPGKEREFVAAISWSGVSIYYADSVKGRFTISRDNAKNTVYLQMNSLEPEDTAVYYCAGTEGAYTVAGGSTFGYDMDYWGKGTQVTVSS
26 | 36.7 | 668 | anti-IL-12Rβ2 VHH clone 2CAH27 (VHH, not shown: small tags and cut ends, periplasmic extract) VHH: QVQLQESGGGSVQSGGSLRLSCVASGRTFSSYAMGWFRQGPGKEREFVAAISWSGVSIYYADSVKGRFTISRDNAKNTVYLQMNSLEPEDTAVYYCAGTEGAYTVAGGSTFGYDMDYWGKGTQVTVSS
27 | 39.4 | 801 | anti-IL-12Rβ2 VHH clone 3CAH48 (VHH, not shown: small tags and cut ends, periplasmic extract; also called 20360) VHH: QVQLQESGGGLVQAGGSLRLSCAASGRTFSSYAMGWFRQGPGKEREFVAAISWSGVSTYYADSVKGRFTISRDNAKNTVYLQMNSLRPEDTAVYYCAATEGAYTVAGGSTFGYDMDYWGKGTQVTVSS
